{
  "source": "patent US10434147B2",
  "about": "“Treatment type 2 diabetes mellitus patients” (Sanofi-Aventis Deutschland GmbH, priority 2015, dated 2019)",
  "test_system": "Patients with Type 2 Diabetes Insufficiently Controlled with Insulin Glargine with or without Metformin",
  "test": "Treatment-emergent adverse events, 26-week study",
  "assay_type": "in vivo, human",
  "settings": "in vivo",
  "text": "FIG. 6—Graphical study design. ^1 Insulin glargine should be injected subcutaneously once daily at dinner or breakfast time (according to patient's/investigators' preference). […] Meal used for insulin glulisine dosing should remain the same throughout the 26-week treatment period. ^4 Injection of insulin glulisine prior to breakfast, lunch and dinner.\nCo-primary endpoints at 26 weeks were (1) non-inferiority (95% CI upper bound <0.4%) in HbA1c reduction with LIXI vs GLU-1 and (2) for LIXI vs GLU-3, either non-inferiority in HbA1c reduction (2a) OR superiority (one-sided α≤0.025) in body weight change (2b). FPG, PPG, IG dose, composite outcomes, AEs, and hypoglycemia were assessed.",
  "data": [
    {"substance": "Insulin Glulisine TID: insulin glulisine three times daily, added to insulin glargine ± metformin (comparator arm)", "values": [
      {"measurement": "Patients with treatment emergent SAE: Diabetic bullosis", "value": "0 n (%)"},
      {"measurement": "Patients with treatment emergent SAE: Epigastric discomfort", "value": "0 n (%)"},
      {"measurement": "Patients with treatment emergent SAE: Erysipelas", "value": "0 n (%)"},
      {"measurement": "Patients with treatment emergent SAE: Gastric ulcer haemorrhage", "value": "0 n (%)"},
      {"measurement": "Patients with treatment emergent SAE: Gastrointestinal disorders (SOC)", "value": "0 n (%)"},
      {"measurement": "Patients with treatment emergent SAE: Hepatic mass", "value": "0 n (%)"},
      {"measurement": "Patients with treatment emergent SAE: Hepatobiliary disorders (SOC)", "value": "0 n (%)"},
      {"measurement": "Patients with treatment emergent SAE: Hypertension", "value": "1 (0.3%) n (%)"},
      {"measurement": "Patients with treatment emergent SAE: Hypoglycaemia", "value": "0 n (%)"},
      {"measurement": "Patients with treatment emergent SAE: Hypoglycaemic unconsciousness", "value": "0 n (%)"},
      {"measurement": "Patients with treatment emergent SAE: Incisional hernia", "value": "0 n (%)"},
      {"measurement": "Patients with treatment emergent SAE: Infections and infestations (SOC)", "value": "1 (0.3%) n (%)"},
      {"measurement": "Patients with treatment emergent SAE: Injury, poisoning and procedural complications (SOC)", "value": "1 (0.3%) n (%)"},
      {"measurement": "Patients with treatment emergent SAE: Invasive ductal breast carcinoma", "value": "1 (0.3%) n (%)"},
      {"measurement": "Patients with treatment emergent SAE: Metabolism and nutrition disorders (SOC)", "value": "0 n (%)"},
      {"measurement": "Patients with treatment emergent SAE: Myocardial infarction", "value": "0 n (%)"},
      {"measurement": "Patients with treatment emergent SAE: Myocardial ischaemia", "value": "1 (0.3%) n (%)"},
      {"measurement": "Patients with treatment emergent SAE: Neoplasm malignant", "value": "1 (0.3%) n (%)"},
      {"measurement": "Patients with treatment emergent SAE: Neoplasms benign, malignant and unspecified (incl cysts and polyps) (SOC)", "value": "3 (1.0%) n (%)"},
      {"measurement": "Patients with treatment emergent SAE: Nervous system disorders (SOC)", "value": "2 (0.7%) n (%)"},
      {"measurement": "Patients with treatment emergent SAE: Neuritis cranial", "value": "0 n (%)"},
      {"measurement": "Patients with treatment emergent SAE: Pancreatic carcinoma metastatic", "value": "0 n (%)"},
      {"measurement": "Patients with treatment emergent SAE: Penile infection", "value": "0 n (%)"},
      {"measurement": "Patients with treatment emergent SAE: Renal and urinary disorders (SOC)", "value": "0 n (%)"},
      {"measurement": "Patients with treatment emergent SAE: Renal failure", "value": "0 n (%)"},
      {"measurement": "Patients with treatment emergent SAE: Renal failure acute", "value": "0 n (%)"},
      {"measurement": "Patients with treatment emergent SAE: Septic arthritis staphylococcal", "value": "0 n (%)"},
      {"measurement": "Patients with treatment emergent SAE: Skin and subcutaneous tissue disorders (SOC)", "value": "1 (0.3%) n (%)"},
      {"measurement": "Patients with treatment emergent SAE: Skin ulcer haemorrhage", "value": "1 (0.3%) n (%)"},
      {"measurement": "Patients with treatment emergent SAE: Uterine cancer", "value": "0 n (%)"},
      {"measurement": "Patients with treatment emergent SAE: Vascular disorders (SOC)", "value": "1 (0.3%) n (%)"},
      {"measurement": "TEAE leading to permanent treatment discontinuation: Abdominal pain", "value": "0 n (%)"},
      {"measurement": "TEAE leading to permanent treatment discontinuation: Any class", "value": "3 (1.0%) n (%)"},
      {"measurement": "TEAE leading to permanent treatment discontinuation: Ascites", "value": "0 n (%)"},
      {"measurement": "TEAE leading to permanent treatment discontinuation: Blood and lymphatic system disorders (SOC)", "value": "0 n (%)"},
      {"measurement": "TEAE leading to permanent treatment discontinuation: Blood glucose decreased", "value": "0 n (%)"},
      {"measurement": "TEAE leading to permanent treatment discontinuation: Cardiac disorders (SOC)", "value": "1 (0.3%) n (%)"},
      {"measurement": "TEAE leading to permanent treatment discontinuation: Cardiac failure chronic", "value": "1 (0.3%) n (%)"},
      {"measurement": "TEAE leading to permanent treatment discontinuation: Cough", "value": "0 n (%)"},
      {"measurement": "TEAE leading to permanent treatment discontinuation: Decreased appetite", "value": "0 n (%)"},
      {"measurement": "TEAE leading to permanent treatment discontinuation: Dehydration", "value": "0 n (%)"},
      {"measurement": "TEAE leading to permanent treatment discontinuation: Diabetic bullosis", "value": "0 n (%)"},
      {"measurement": "TEAE leading to permanent treatment discontinuation: Diarrhoea", "value": "0 n (%)"},
      {"measurement": "TEAE leading to permanent treatment discontinuation: Dyspepsia", "value": "0 n (%)"},
      {"measurement": "TEAE leading to permanent treatment discontinuation: Epigastric discomfort", "value": "0 n (%)"},
      {"measurement": "TEAE leading to permanent treatment discontinuation: Gastric ulcer haemorrhage", "value": "0 n (%)"},
      {"measurement": "TEAE leading to permanent treatment discontinuation: Gastrointestinal disorders (SOC)", "value": "0 n (%)"},
      {"measurement": "TEAE leading to permanent treatment discontinuation: Headache", "value": "0 n (%)"},
      {"measurement": "TEAE leading to permanent treatment discontinuation: Hepatic mass", "value": "0 n (%)"},
      {"measurement": "TEAE leading to permanent treatment discontinuation: Hepatobiliary disorders (SOC)", "value": "0 n (%)"},
      {"measurement": "TEAE leading to permanent treatment discontinuation: Hot flush", "value": "0 n (%)"},
      {"measurement": "TEAE leading to permanent treatment discontinuation: Hypoglycaemia", "value": "0 n (%)"},
      {"measurement": "TEAE leading to permanent treatment discontinuation: Immune system disorders (SOC)", "value": "1 (0.3%) n (%)"},
      {"measurement": "TEAE leading to permanent treatment discontinuation: Invasive ductal breast carcinoma", "value": "0 n (%)"},
      {"measurement": "TEAE leading to permanent treatment discontinuation: Investigations (SOC)", "value": "0 n (%)"},
      {"measurement": "TEAE leading to permanent treatment discontinuation: Lymphadenopathy", "value": "0 n (%)"},
      {"measurement": "TEAE leading to permanent treatment discontinuation: Metabolism and nutrition disorders (SOC)", "value": "0 n (%)"},
      {"measurement": "TEAE leading to permanent treatment discontinuation: Metastases to liver", "value": "0 n (%)"},
      {"measurement": "TEAE leading to permanent treatment discontinuation: Metastases to peritoneum", "value": "0 n (%)"},
      {"measurement": "TEAE leading to permanent treatment discontinuation: Nasal congestion", "value": "0 n (%)"},
      {"measurement": "TEAE leading to permanent treatment discontinuation: Nausea", "value": "0 n (%)"},
      {"measurement": "TEAE leading to permanent treatment discontinuation: Neoplasms benign, malignant and unspecified (incl cysts and polyps) (SOC)", "value": "0 n (%)"},
      {"measurement": "TEAE leading to permanent treatment discontinuation: Nervous system disorders (SOC)", "value": "0 n (%)"},
      {"measurement": "TEAE leading to permanent treatment discontinuation: Pancreatic carcinoma metastatic", "value": "0 n (%)"},
      {"measurement": "TEAE leading to permanent treatment discontinuation: Renal and urinary disorders (SOC)", "value": "0 n (%)"},
      {"measurement": "TEAE leading to permanent treatment discontinuation: Renal failure", "value": "0 n (%)"},
      {"measurement": "TEAE leading to permanent treatment discontinuation: Respiratory, thoracic and mediastinal disorders (SOC)", "value": "0 n (%)"},
      {"measurement": "TEAE leading to permanent treatment discontinuation: Seasonal allergy", "value": "1 (0.3%) n (%)"},
      {"measurement": "TEAE leading to permanent treatment discontinuation: Skin and subcutaneous tissue disorders (SOC)", "value": "1 (0.3%) n (%)"},
      {"measurement": "TEAE leading to permanent treatment discontinuation: Skin ulcer haemorrhage", "value": "1 (0.3%) n (%)"},
      {"measurement": "TEAE leading to permanent treatment discontinuation: Thrombosis", "value": "0 n (%)"},
      {"measurement": "TEAE leading to permanent treatment discontinuation: Tremor", "value": "0 n (%)"},
      {"measurement": "TEAE leading to permanent treatment discontinuation: Vascular disorders (SOC)", "value": "0 n (%)"},
      {"measurement": "TEAE leading to permanent treatment discontinuation: Vomiting", "value": "0 n (%)"},
      {"measurement": "Total number of patients with any event adjudicated as pancreatitis by PSAC", "value": "0 n (%)"}
    ]}
  ]
}
